{"source": "the supplement of paper PMC10567573", "parents": {"B1": {"name": "C22orf15 (parent)", "chain": "ITQSWQVSVRVQPRGRAHLLPNPY"}}, "data": [{"variants_of": "B1", "assay": "protein stability index of a GFP-peptide fusion (GPS, HEK-293T) (PSI 1-6); higher = more stable", "details": "c terminus: a fixed tail appended", "values": [{"variant": "ITQSWQVSVRVQPRGRAHLLPNPI", "note": "[Y24I]", "protein stability index": 2.29}, {"variant": "ITQSWQVSLRVQPRGRAHLLPNPY", "note": "[V9L]", "protein stability index": 2.7}, {"variant": "ITQSWQVSVLVQPRGRAHLLPNPY", "note": "[R10L]", "protein stability index": 2.47}, {"variant": "ITQSWQVSVRVQPRGRAHLLPNGY", "note": "[P23G]", "protein stability index": 1.32}, {"variant": "ILQSWQVSVRVQPRGRAHLLPNPY", "note": "[T2L]", "protein stability index": 2.27}, {"variant": "ITQSWQVSVRVQPRGRAVLLPNPY", "note": "[H18V]", "protein stability index": 2.19}, {"variant": "ITQSWQVSVRVQPRGRAHLLPLPY", "note": "[N22L]", "protein stability index": 3.15}, {"variant": "ITQSWQVSVRVQSRGRAHLLPNPY", "note": "[P13S]", "protein stability index": 2.67}, {"variant": "ITQSWQVSVRQQPRGRAHLLPNPY", "note": "[V11Q]", "protein stability index": 1.49}, {"variant": "ITQSWQVSVRVQPRGRAHLLRNPY", "note": "[P21R]", "protein stability index": 1.79}, {"variant": "ITQSWQVSVRVQPRGRAHPLPNPY", "note": "[L19P]", "protein stability index": 1.78}, {"variant": "ITQSWQVSVRVQPRDRAHLLPNPY", "note": "[G15D]", "protein stability index": 1.94}, {"variant": "ITQSWQVSVRVQPRGRAHLLPIPY", "note": "[N22I]", "protein stability index": 2.39}, {"variant": "NTQSWQVSVRVQPRGRAHLLPNPY", "note": "[I1N]", "protein stability index": 2.24}, {"variant": "ITQSWQVSVRVQPRGRAHLLPMPY", "note": "[N22M]", "protein stability index": 1.88}, {"variant": "ITQRWQVSVRVQPRGRAHLLPNPY", "note": "[S4R]", "protein stability index": 2.99}, {"variant": "ITQSWQVSVRVQPRGRAHLLDNPY", "note": "[P21D]", "protein stability index": 1.56}, {"variant": "ITQSWQVSVRVQPRGRAHLLPVPY", "note": "[N22V]", "protein stability index": 1.75}, {"variant": "ITQSWQVSVRRQPRGRAHLLPNPY", "note": "[V11R]", "protein stability index": 1.86}, {"variant": "ITQSSQVSVRVQPRGRAHLLPNPY", "note": "[W5S]", "protein stability index": 2.69}, {"variant": "IAQSWQVSVRVQPRGRAHLLPNPY", "note": "[T2A]", "protein stability index": 1.43}, {"variant": "ITQSWQVSVRVQPRGRAHLLPNCY", "note": "[P23C]", "protein stability index": 1.6}, {"variant": "ITQSWQVSVRVQPRGRAHLLPNEY", "note": "[P23E]", "protein stability index": 1.51}, {"variant": "ITQSWQVSVRVQPDGRAHLLPNPY", "note": "[R14D]", "protein stability index": 1.87}, {"variant": "ITQSWQVSVRVQPRGRAHLLGNPY", "note": "[P21G]", "protein stability index": 1.76}, {"variant": "ITQSWQVSARVQPRGRAHLLPNPY", "note": "[V9A]", "protein stability index": 2.19}, {"variant": "ITQSWQVSERVQPRGRAHLLPNPY", "note": "[V9E]", "protein stability index": 2.26}, {"variant": "ITQSWQVSVRVQPRGRALLLPNPY", "note": "[H18L]", "protein stability index": 3.13}, {"variant": "ITQSWQVSQRVQPRGRAHLLPNPY", "note": "[V9Q]", "protein stability index": 2.44}, {"variant": "ITQSWQVSVRVQPRYRAHLLPNPY", "note": "[G15Y]", "protein stability index": 1.77}, {"variant": "ITQSTQVSVRVQPRGRAHLLPNPY", "note": "[W5T]", "protein stability index": 1.48}, {"variant": "ITQSPQVSVRVQPRGRAHLLPNPY", "note": "[W5P]", "protein stability index": 2.56}, {"variant": "ITQSWQVSVRVQPRGRPHLLPNPY", "note": "[A17P]", "protein stability index": 1.81}, {"variant": "ITQSWQVSVPVQPRGRAHLLPNPY", "note": "[R10P]", "protein stability index": 1.83}, {"variant": "GTQSWQVSVRVQPRGRAHLLPNPY", "note": "[I1G]", "protein stability index": 1.92}, {"variant": "ITQSWQVSSRVQPRGRAHLLPNPY", "note": "[V9S]", "protein stability index": 1.91}, {"variant": "IKQSWQVSVRVQPRGRAHLLPNPY", "note": "[T2K]", "protein stability index": 1.87}, {"variant": "ITQSWQVSVRVQPRGRAHLLPQPY", "note": "[N22Q]", "protein stability index": 2.43}, {"variant": "IPQSWQVSVRVQPRGRAHLLPNPY", "note": "[T2P]", "protein stability index": 2.43}, {"variant": "ITQSWQVAVRVQPRGRAHLLPNPY", "note": "[S8A]", "protein stability index": 1.27}, {"variant": "ITQSWQVSVRVQPRGRQHLLPNPY", "note": "[A17Q]", "protein stability index": 1.68}, {"variant": "ITQSWQCSVRVQPRGRAHLLPNPY", "note": "[V7C]", "protein stability index": 1.6}, {"variant": "MTQSWQVSVRVQPRGRAHLLPNPY", "note": "[I1M]", "protein stability index": 1.26}, {"variant": "ITQSWQGSVRVQPRGRAHLLPNPY", "note": "[V7G]", "protein stability index": 2.34}, {"variant": "ITQSNQVSVRVQPRGRAHLLPNPY", "note": "[W5N]", "protein stability index": 2.86}, {"variant": "ITQSWQVSVRVQPRGRAPLLPNPY", "note": "[H18P]", "protein stability index": 2.7}, {"variant": "ITQSWQVSVRFQPRGRAHLLPNPY", "note": "[V11F]", "protein stability index": 1.69}, {"variant": "ITQSWQVSVRVQPRGRAHMLPNPY", "note": "[L19M]", "protein stability index": 3.54}, {"variant": "ITQSWQVSVRVQNRGRAHLLPNPY", "note": "[P13N]", "protein stability index": 1.74}, {"variant": "ITQSWQVSVNVQPRGRAHLLPNPY", "note": "[R10N]", "protein stability index": 2.63}, {"variant": "FTQSWQVSVRVQPRGRAHLLPNPY", "note": "[I1F]", "protein stability index": 2.74}, {"variant": "ITQSWQVSVRVQPRGRAHLLQNPY", "note": "[P21Q]", "protein stability index": 1.52}, {"variant": "ITQSWQVSVRVTPRGRAHLLPNPY", "note": "[Q12T]", "protein stability index": 1}, {"variant": "ITQAWQVSVRVQPRGRAHLLPNPY", "note": "[S4A]", "protein stability index": 3.33}, {"variant": "ITQSWAVSVRVQPRGRAHLLPNPY", "note": "[Q6A]", "protein stability index": 1.09}, {"variant": "ITHSWQVSVRVQPRGRAHLLPNPY", "note": "[Q3H]", "protein stability index": 2.02}, {"variant": "ITQSWQVSVRVQPRGRAHLLPNPT", "note": "[Y24T]", "protein stability index": 2.34}, {"variant": "ITQSWQVSVRVQPRGTAHLLPNPY", "note": "[R16T]", "protein stability index": 2.14}, {"variant": "ITQSWQVSVRVQPRGRAHLLPNRY", "note": "[P23R]", "protein stability index": 1.87}, {"variant": "ITQSWQVSVRVQPRGRDHLLPNPY", "note": "[A17D]", "protein stability index": 1.76}, {"variant": "ITQSWQVSVRVQPRGRAHLLSNPY", "note": "[P21S]", "protein stability index": 1.7}, {"variant": "ITQSWQFSVRVQPRGRAHLLPNPY", "note": "[V7F]", "protein stability index": 2.22}, {"variant": "ITQSWQVSVRVQPRGRAHQLPNPY", "note": "[L19Q]", "protein stability index": 1.93}, {"variant": "ITQHWQVSVRVQPRGRAHLLPNPY", "note": "[S4H]", "protein stability index": 2.83}, {"variant": "ITQSWQVGVRVQPRGRAHLLPNPY", "note": "[S8G]", "protein stability index": 2.39}, {"variant": "ITQSWQVSVRVQIRGRAHLLPNPY", "note": "[P13I]", "protein stability index": 2.67}, {"variant": "ITQSWQVSVRVQPRGRAHLLPAPY", "note": "[N22A]", "protein stability index": 2.85}, {"variant": "ITQSWQVSVGVQPRGRAHLLPNPY", "note": "[R10G]", "protein stability index": 2.89}, {"variant": "ITQSWQVSVRVQPRWRAHLLPNPY", "note": "[G15W]", "protein stability index": 4.12}, {"variant": "ITQSAQVSVRVQPRGRAHLLPNPY", "note": "[W5A]", "protein stability index": 1.86}, {"variant": "ITQSWQVSVRVQPRGRAHLLPEPY", "note": "[N22E]", "protein stability index": 1.59}, {"variant": "ITQSWQSSVRVQPRGRAHLLPNPY", "note": "[V7S]", "protein stability index": 2.12}, {"variant": "ITASWQVSVRVQPRGRAHLLPNPY", "note": "[Q3A]", "protein stability index": 3.08}, {"variant": "PTQSWQVSVRVQPRGRAHLLPNPY", "note": "[I1P]", "protein stability index": 1.64}, {"variant": "ITQSWQVSVRVQPRGRAHLLCNPY", "note": "[P21C]", "protein stability index": 3.18}, {"variant": "ITQSWQVSVDVQPRGRAHLLPNPY", "note": "[R10D]", "protein stability index": 2.05}, {"variant": "ITQSQQVSVRVQPRGRAHLLPNPY", "note": "[W5Q]", "protein stability index": 1.81}, {"variant": "ITQSWQVSVRVQPRGRAHLLLNPY", "note": "[P21L]", "protein stability index": 2.04}, {"variant": "ITQSWQVSVRVQLRGRAHLLPNPY", "note": "[P13L]", "protein stability index": 2.69}, {"variant": "ITQSWQVSVRVQPYGRAHLLPNPY", "note": "[R14Y]", "protein stability index": 1.85}, {"variant": "ITQSWQVSVRKQPRGRAHLLPNPY", "note": "[V11K]", "protein stability index": 3.28}, {"variant": "ITQSWQVSVRVQPRGRAHLLPNAY", "note": "[P23A]", "protein stability index": 1.34}, {"variant": "ITQSWQVSVRVQPPGRAHLLPNPY", "note": "[R14P]", "protein stability index": 1.68}, {"variant": "ITQSWNVSVRVQPRGRAHLLPNPY", "note": "[Q6N]", "protein stability index": 1.73}, {"variant": "ITQSWQVEVRVQPRGRAHLLPNPY", "note": "[S8E]", "protein stability index": 1.54}, {"variant": "ITQSWQVSVRVQPRGSAHLLPNPY", "note": "[R16S]", "protein stability index": 2.21}, {"variant": "ITQSWQVSVRVQPRGRSHLLPNPY", "note": "[A17S]", "protein stability index": 2.46}, {"variant": "ITQSWQVSVRVQPRHRAHLLPNPY", "note": "[G15H]", "protein stability index": 2.03}, {"variant": "ITQSWQVSVRVQPEGRAHLLPNPY", "note": "[R14E]", "protein stability index": 2.73}, {"variant": "ITESWQVSVRVQPRGRAHLLPNPY", "note": "[Q3E]", "protein stability index": 1.07}, {"variant": "ITQSWQVSVRVQPRGRAHLYPNPY", "note": "[L20Y]", "protein stability index": 3.07}, {"variant": "ITQSWQVNVRVQPRGRAHLLPNPY", "note": "[S8N]", "protein stability index": 1.46}, {"variant": "ITQSWQVSVRVQPRGNAHLLPNPY", "note": "[R16N]", "protein stability index": 1.4}, {"variant": "ITQSWQVSVRVQPRGRAHLVPNPY", "note": "[L20V]", "protein stability index": 4.25}]}]}
